Assay results published in US20060069055, “Delivery of polynucleotides” (published 2006).

Target: T1, NF-kB p50/p50 homodimer (Homo sapiens, UniProt P19838 P19838:1-433)
Experiment: EMSA
Settings: protein: extract; tags: nuclear extract of LPS-stimulated THP-1 cells; chain copies: 2 (stated)
Text: (§1) The EMSA assay was employed to characterize oligonucleotide decoys for the NF-κB transcription factor. […] Using the above modified oligonucleotides to compete for binding for the above-mentioned NF-κB family members, it was possible to compare the binding affinity of these oligonucleotides against the high affinity radiolabeled probe and each other. This assay has also enabled the design of a decoy which selectively binds particular members of the NF-κB family. By using increasing concentrations of various oligonucleotides, it was observed that, by deleting or changing targeted residues in the binding site, it was possible to specifically decrease the binding of the decoy molecule to p50/p50 homodimers, while retaining the affinity for p65/p50 and cRel/p50 heterodimers.
(§2) The NF-κB gel shift assays (EMSA) were performed as follows. A double-stranded oligonucleotide containing a consensus NF-κB binding site (5′ […].GGC 3′) (SEQ ID NO: 26) was end-labeled with γ³²P-ATP using T4 Polynucleotide Kinase (Promega). […] The dried gels were imaged and quantitated using a Typhoon 8600 Phosphorlmager (Amersham) and ImageQuant software. […]

T1 sequence (P19838 1-433, one chain of several): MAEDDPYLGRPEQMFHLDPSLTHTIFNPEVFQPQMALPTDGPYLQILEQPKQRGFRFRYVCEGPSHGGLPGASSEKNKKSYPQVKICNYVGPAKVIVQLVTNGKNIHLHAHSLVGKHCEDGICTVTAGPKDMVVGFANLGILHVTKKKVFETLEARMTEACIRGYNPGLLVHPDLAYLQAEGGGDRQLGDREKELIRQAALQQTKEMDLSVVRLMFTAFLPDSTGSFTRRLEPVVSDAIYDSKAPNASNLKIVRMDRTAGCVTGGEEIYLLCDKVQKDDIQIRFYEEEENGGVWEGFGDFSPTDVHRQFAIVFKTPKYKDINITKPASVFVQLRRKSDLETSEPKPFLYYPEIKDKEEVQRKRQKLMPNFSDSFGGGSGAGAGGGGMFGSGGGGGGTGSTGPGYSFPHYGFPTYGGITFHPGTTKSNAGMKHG

Binder | IC50
153/154 PO/H11 (dsDNA, strand 153 PO; strand 154 PS at the 11 most 3' linkages) DNA 1: AGTTGAGGACTTTCCAGGC DNA 2: GCCTGGAAAGTCCTCAACT | 40 fold molar excess

Target: T2, HIF-1 complex (HIF-1alpha containing) (UniProt Q16665;P27540 Q16665:1-826,P27540:2-789)
T2 sequence (Q16665 whole entry, chain 1 of 2): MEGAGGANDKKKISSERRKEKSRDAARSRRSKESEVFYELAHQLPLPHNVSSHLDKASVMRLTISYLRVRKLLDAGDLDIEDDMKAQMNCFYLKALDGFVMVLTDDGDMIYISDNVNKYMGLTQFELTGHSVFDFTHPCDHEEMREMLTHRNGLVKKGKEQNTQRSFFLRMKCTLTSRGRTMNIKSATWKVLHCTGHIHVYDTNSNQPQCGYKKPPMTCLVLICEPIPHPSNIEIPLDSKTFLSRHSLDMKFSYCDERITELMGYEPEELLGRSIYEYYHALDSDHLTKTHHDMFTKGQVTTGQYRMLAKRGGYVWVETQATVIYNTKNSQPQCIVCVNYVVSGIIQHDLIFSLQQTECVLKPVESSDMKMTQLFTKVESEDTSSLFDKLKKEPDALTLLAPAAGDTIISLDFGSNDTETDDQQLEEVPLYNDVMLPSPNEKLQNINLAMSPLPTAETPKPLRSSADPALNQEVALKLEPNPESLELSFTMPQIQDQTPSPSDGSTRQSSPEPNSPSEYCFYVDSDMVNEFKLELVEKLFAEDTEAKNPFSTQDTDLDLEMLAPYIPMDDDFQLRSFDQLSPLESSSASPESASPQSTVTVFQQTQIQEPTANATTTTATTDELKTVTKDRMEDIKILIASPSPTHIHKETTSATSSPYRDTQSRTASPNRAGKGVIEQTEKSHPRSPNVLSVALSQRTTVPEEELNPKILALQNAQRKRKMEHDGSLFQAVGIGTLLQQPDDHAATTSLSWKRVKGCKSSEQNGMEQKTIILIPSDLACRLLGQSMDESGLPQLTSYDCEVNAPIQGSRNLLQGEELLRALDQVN
T2 sequence (P27540 2-789, chain 2 of 2): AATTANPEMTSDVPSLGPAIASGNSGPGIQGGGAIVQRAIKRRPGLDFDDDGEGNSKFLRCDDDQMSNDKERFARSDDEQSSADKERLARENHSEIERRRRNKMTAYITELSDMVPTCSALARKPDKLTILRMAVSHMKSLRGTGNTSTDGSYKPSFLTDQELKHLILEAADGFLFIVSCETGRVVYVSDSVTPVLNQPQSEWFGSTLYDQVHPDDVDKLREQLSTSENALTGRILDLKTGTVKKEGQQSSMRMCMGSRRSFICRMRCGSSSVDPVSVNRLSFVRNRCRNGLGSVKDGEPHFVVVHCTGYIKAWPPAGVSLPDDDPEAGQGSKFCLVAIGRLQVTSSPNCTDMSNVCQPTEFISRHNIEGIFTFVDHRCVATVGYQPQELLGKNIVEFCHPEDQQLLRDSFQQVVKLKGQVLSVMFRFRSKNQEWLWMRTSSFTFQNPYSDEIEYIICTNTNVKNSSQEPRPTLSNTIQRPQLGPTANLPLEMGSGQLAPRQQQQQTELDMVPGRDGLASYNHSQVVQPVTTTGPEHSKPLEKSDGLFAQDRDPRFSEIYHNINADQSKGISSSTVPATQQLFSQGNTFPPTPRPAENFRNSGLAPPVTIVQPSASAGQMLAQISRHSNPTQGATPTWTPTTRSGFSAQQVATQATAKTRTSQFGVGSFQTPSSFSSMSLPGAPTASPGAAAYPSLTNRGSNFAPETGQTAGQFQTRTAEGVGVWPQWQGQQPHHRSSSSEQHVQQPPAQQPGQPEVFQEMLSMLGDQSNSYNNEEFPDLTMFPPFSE
Experiment: competition
Settings: protein: extract; tags: nuclear extract, TransAM HIF-1 kit Active Motif 47096
Protocol: (§3) To assess the relative affinities of oligonucleotides for a HIF-1α containing complex, the HIF-1 TransAM assay (Active Motif, Catalog # 47096) was utilized. The assay was performed according to manufacturer's instructions. Briefly, a double-stranded oligonucletide containing the hypoxia response element (HRE) was immobilized on a 96-well plate. A nuclear extract containing HIF-1 alpha complexes was incubated and allowed to bind to the immobilized oligonucleotide. The unbound material was washed away and the bound HIF-1α detected using an antibody that specificially recognizes HIF-1α. The anti-HIF-1α antibody was detected by a secondary antibody labeled with horseradish peroxidase (HRP), and the amount of HRP in each well was measured using a colorimetric substrate reaction and read using a microplate spectrophotometer.
(§4) The ability of candidate decoy molecules to compete for binding of HIF-1α to the HRE element immobilized on the plate were measured and compared to reveal relative binding affinities. Candidate decoys were added in increasing molar ratios (relative to the amount of oligo immobilized on the plate) to compete for binding to the HIF-1α containing complexes. […] A well containing a competing decoy able to bind HIF-1α with high affinity would give a lower absorbance reading as compared to a decoy with low affinity for HIF-1α. All potential decoys were then compared and ranked in order to assess their relative binding affinities.
(§5) The screen was conducted using different decoy concentrations. For each UV absorbance reading, normalization was done by calculating the ratio of absorbance readings of sample vs. wild type control. The bigger ratio represents less competition of binding with HIF-1α when compared with wild-type control. The smaller (smaller than 1.0 or close to 1.0) ratios represent better binding or better competition.

Binder | binding signal
HIF decoy 821/822 (dsDNA) DNA 1: CGCGAGCGTACGTGCCTCAGG DNA 2: CCTGAGGCACGTACGCTCGCG | 1.26 ratio to wild-type control absorbance
HIF decoy 845/846 (dsDNA) DNA 1: GAGCGTACGTGCCTCAGG DNA 2: CCTGAGGCACGTACGCTC | 1.57 ratio to wild-type control absorbance
HIF decoy 891/892 (dsDNA) DNA 1: GGCTGCTGCATACGTGCAGGTC DNA 2: GACCTGCACGTATGCAGCAGCC | 1.6 ratio to wild-type control absorbance
HIF decoy 853/854 (dsDNA) DNA 1: TTGCTTACGTGCGCCCGG DNA 2: CCGGGCGCACGTAAGCAA | 1.62 ratio to wild-type control absorbance
HIF decoy 843/844 (dsDNA) DNA 1: GTGCATACGTGGGCTCCA DNA 2: TGGAGCCCACGTATGCAC | 1.81 ratio to wild-type control absorbance
HIF decoy 801/802 (dsDNA) DNA 1: GCCCTACGTGCTGTCTCA DNA 2: TGAGACAGCACGTAGGGC | 1.83 ratio to wild-type control absorbance
HIF decoy 859/860 (dsDNA) DNA 1: ACCGTACGTGCTGATC DNA 2: GATCAGCACGTACGGT | 1.85 ratio to wild-type control absorbance
HIF decoy 871/872 (dsDNA) DNA 1: ACCGTACGTGCTGCCA DNA 2: TGGCAGCACGTACGGT | 1.87 ratio to wild-type control absorbance
HIF decoy 869/870 (dsDNA) DNA 1: AGCAGACGTGCAGGGT DNA 2: ACCCTGCACGTCTGCT | 1.93 ratio to wild-type control absorbance
HIF decoy 887/888 (dsDNA) DNA 1: GGCTGCACCGTACGTGCTGATC DNA 2: GATCAGCACGTACGGTGCAGCC | 1.94 ratio to wild-type control absorbance
HIF decoy 849/850 (dsDNA) DNA 1: GCCTACACGTGGGTTCCC DNA 2: GGGAACCCACGTGTAGGC | 1.96 ratio to wild-type control absorbance
HIF decoy 879/880 (dsDNA) DNA 1: GGCTGCTGCAGACGTGCAGGTC DNA 2: GACCTGCACGTCTGCAGCAGCC | 1.98 ratio to wild-type control absorbance
HIF decoy 841/842 double (dsDNA) DNA 1: AGCGGACGTGCAGAAGTTGCACGTCCTCT DNA 2: AGAGGACGTGCAACTTCTGCACGTCCGCT | 0.95 ratio to wild-type control absorbance
HIF decoy 851/852 (dsDNA) DNA 1: CGGAGTACGTGACGGAGC DNA 2: GCTCCGTCACGTACTCCG | 1.08 ratio to wild-type control absorbance
HIF decoy 805/806 (dsDNA) DNA 1: CCCCCTCGGACGTGACTCGGACCAC DNA 2: GTGGTCCGAGTCACGTCCGAGGGGG | 1.09 ratio to wild-type control absorbance
HIF decoy 855/856 (dsDNA) DNA 1: GTGTGTACGTGCAGGAAA DNA 2: TTTCCTGCACGTACACAC | 1.21 ratio to wild-type control absorbance

Target: T1, NF-kB p50/p50 homodimer
Experiment: EMSA; competition against labelled probe 113/114
Settings: protein: extract; tags: nuclear extract of LPS-stimulated THP-1 cells; chain copies: 2 (stated)
Text: as §1, §2

Binder | IC50
153/154 H5/PO (dsDNA, PS at the 5 most 3' linkages of strand 153, strand 154 PO) DNA 1: AGTTGAGGACTTTCCAGGC DNA 2: GCCTGGAAAGTCCTCAACT | 83 fold molar excess
153/154 PO (dsDNA) DNA 1: AGTTGAGGACTTTCCAGGC DNA 2: GCCTGGAAAGTCCTCAACT | 92 fold molar excess

Target: T2, HIF-1 complex (HIF-1alpha containing)
Experiment: competition; smaller is better competition; TransAM plate assay
Settings: protein: extract; tags: nuclear extract, TransAM HIF-1 kit Active Motif 47096
Protocol: as §3
The ability of candidate decoy molecules to compete for binding of HIF-1α to the HRE element immobilized on the plate were measured and compared to reveal relative binding affinities. […] A well containing a competing decoy able to bind HIF-1α with high affinity would give a lower absorbance reading as compared to a decoy with low affinity for HIF-1α. […]
The screen was conducted using different decoy concentrations. For each UV absorbance reading, normalization was done by calculating the ratio of absorbance readings of sample vs. wild type control. […]

Binder | binding signal
HIF decoy 819/820 double (dsDNA) DNA 1: GAAATACGTGCGCTTTGTGTGTACGTGCAGGAA DNA 2: TTCCTGCACGTACACACAAAGCGCACGTATTTC | 0.88 ratio to wild-type control absorbance

Target: T2, HIF-1 complex (HIF-1alpha containing)
Experiment: competition; TransAM; higher ratio = poorer competition; scramble 2.19
Settings: protein: extract; tags: nuclear extract, TransAM HIF-1 kit Active Motif 47096
Protocol: as §3, §4, §5

Binder | binding signal
HIF decoy 865/866 (dsDNA) DNA 1: AGCAGACGTGCAGGCA DNA 2: TGCCTGCACGTCTGCT | 2.01 ratio to wild-type control
HIF decoy 863/864 (dsDNA) DNA 1: AGCAGACGTGCAGGAT DNA 2: ATCCTGCACGTCTGCT | 2.02 ratio to wild-type control
HIF decoy 873/874 (dsDNA) DNA 1: TCCGTACGTGCTGCGT DNA 2: ACGCAGCACGTACGGA | 2.04 ratio to wild-type control
